Results: the supplement of paper PMC7877785
± gives the uncertainty stated by the source.

Experiment: self-splicing fitness, log relative to wild type (ln ratio); higher = more splicing; Tetrahymena group I intron in knt gene, E. coli kanamycin selection, DiMSum; sequences stand for … in CUCUCU…GGAGGGAAAAGUUAUCAGGCAUGCACCUGGUAGCUAGUCUUUAAACCAAUAGAUUGCAUCGGUUUAAAAGGCAAGACCGUCAAAUUGCGGGAAAGGGGUCAACAGCCGUUCAGUACCAAGUCUCAGGGGAAACUUUGAGAUGGCCUUGCAAAGGGUAUGGUAAUAAGCUGACGGACAUGGUCCUAACCACGCAGCCAAGUCCUAAGUCAACAGAUCUUCUGUUGAUAUGGAUGCAGUUCACAGACUAAAUGUCGGUCGGGGAAGAUGUAUUCUUCUCAUAAGAUAUAGUCGGACCUCUCCUUAAUGGGAGCUAGCGGAUGAAGUGAUGCAACACUGGAGCCGCUGGGAACUAAUUUGUAUGCGAAAGUAUAUUGAUUAGUUUUGGAGUACUCGUGGUCG
Summary of the method: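 The eight P1ex-region nucleotides of an intron in the knt kanamycin-resistance gene on pET-22b(+) were all randomised and the library put into E. coli BL21(DE3). Six replicate transformations were grown overnight at 37°C or 30°C on LB agar with or without 25 μg/mL kanamycin, together with 100 μg/mL carbenicillin, 50 μM IPTG and 0.2% rhamnose. Colonies were pooled and amplicon-sequenced on an Illumina HiSeq 2500. Fitness from DiMSum is the error-weighted combination of wild-type-normalised replicate fold changes, kanamycin over none.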

| Sequence | self-splicing fitness (ln) (30 °C) | self-splicing fitness (ln) (37 °C) |
| --- | --- | --- |
| GCCGAGCAAUAUUACGCGUG | -2.05 ± 0.088 | -1.32 ± 0.091 |
| GAUCAGCAAUAUUACGUGGU | -4.81 ± 0.27 | -2.15 ± 0.13 |
| GGGCAGCAAUAUUACGUUGG | -3.05 ± 0.16 | -1.65 ± 0.15 |
| CAGCAGCAAUAUUACGCAGA | -2.32 ± 0.28 | -1.19 ± 0.13 |
| CGAUAGCAAUAUUACGAAUG | -0.898 ± 0.082 | 0.443 ± 0.11 |
| UUGUAGCAAUAUUACGAGUC | -3.94 ± 0.42 | -2.67 ± 0.32 |
| UGCCAGCAAUAUUACGACCA | 0.429 ± 0.1 | 0.0668 ± 0.13 |
| UAAAAGCAAUAUUACGUGCC | -2.01 ± 0.092 | -1.26 ± 0.12 |
| UAGGAGCAAUAUUACGCGGC | -2.42 ± 0.39 | – |
| CGAUAGCAAUAUUACGACAG | 0.215 ± 0.1 | 0.719 ± 0.12 |
| GCUUAGCAAUAUUACGAUGC | -1.43 ± 0.13 | -0.976 ± 0.21 |
| UAGCAGCAAUAUUACGAAGA | -1.64 ± 0.14 | -1.29 ± 0.13 |
| CCGAAGCAAUAUUACGUAGU | -3.44 ± 0.17 | -3.21 ± 0.23 |
| GCCUAGCAAUAUUACGCAUU | -0.686 ± 0.051 | -0.35 ± 0.062 |
| UUGGAGCAAUAUUACGCGCG | -2.3 ± 0.11 | -0.8 ± 0.1 |
| GCUCAGCAAUAUUACGGUCU | -0.866 ± 0.087 | -0.0674 ± 0.12 |
| CUCGAGCAAUAUUACGGUUA | -2.71 ± 0.16 | -1.58 ± 0.13 |
| UAAAAGCAAUAUUACGUUCC | -3.46 ± 0.3 | -2.57 ± 0.29 |
| GAUGAGCAAUAUUACGUAUU | -3.83 ± 0.34 | -3.78 ± 0.36 |
| UUAGAGCAAUAUUACGUAUG | -1.6 ± 0.085 | -1.31 ± 0.12 |

| Sequence | self-splicing fitness (ln) (30 °C) | self-splicing fitness (ln) (37 °C) |
| --- | --- | --- |
| GCGUAGCAAUAUUACGUUGU | -2.73 ± 0.17 | -1.89 ± 0.18 |
| GUCAAGCAAUAUUACGGUCA | -1.24 ± 0.12 | -0.86 ± 0.12 |
| AACCAGCAAUAUUACGUGCA | -0.671 ± 0.055 | -0.0717 ± 0.072 |
| CCCGAGCAAUAUUACGGUCC | -2.99 ± 0.26 | -2.61 ± 0.22 |
| UGGAAGCAAUAUUACGCCGG | -0.646 ± 0.17 | -0.109 ± 0.16 |
| GUAGAGCAAUAUUACGGACG | -2.8 ± 0.36 | -1 ± 0.3 |
| CGCAAGCAAUAUUACGGCCG | -1.1 ± 0.14 | -0.644 ± 0.26 |
| CCGCAGCAAUAUUACGAGUC | -3.36 ± 0.26 | -3.29 ± 0.28 |
| UGUUAGCAAUAUUACGGUAA | -1.05 ± 0.1 | -0.0801 ± 0.097 |
| CCUGAGCAAUAUUACGCAGG | -2.64 ± 0.27 | -3.36 ± 0.42 |
| UGCCAGCAAUAUUACGCGCA | -2.51 ± 0.28 | -1.06 ± 0.16 |
| UCGAAGCAAUAUUACGAAGA | -2.08 ± 0.25 | -0.685 ± 0.19 |
| UACCAGCAAUAUUACGUUCG | -0.545 ± 0.071 | 0.0802 ± 0.092 |
| GGGGAGCAAUAUUACGUGGA | -2.04 ± 0.35 | -2.48 ± 0.39 |
| ACAUAGCAAUAUUACGGCAA | -0.85 ± 0.09 | -0.569 ± 0.084 |
| AGGGAGCAAUAUUACGCCAG | -1.99 ± 0.24 | -2.14 ± 0.34 |
| AAUGAGCAAUAUUACGGCAA | -2.55 ± 0.34 | -1.85 ± 0.35 |
| CCCCAGCAAUAUUACGCUCC | -3.09 ± 0.36 | -2.91 ± 0.47 |
| UCAUAGCAAUAUUACGGGUG | -1.94 ± 0.093 | -0.795 ± 0.085 |
| UUACAGCAAUAUUACGACGU | -3.61 ± 0.31 | -3.23 ± 0.4 |

| Sequence | self-splicing fitness (ln) (30 °C) | self-splicing fitness (ln) (37 °C) |
| --- | --- | --- |
| ACAUAGCAAUAUUACGGAUU | -3.42 ± 0.13 | -1.68 ± 0.12 |
| AAGCAGCAAUAUUACGAGGA | -2.82 ± 0.22 | -2.16 ± 0.18 |
| GCCUAGCAAUAUUACGCUGU | -0.847 ± 0.09 | 0.254 ± 0.096 |
| GAAAAGCAAUAUUACGGGGU | -3.91 ± 0.26 | -2.32 ± 0.23 |
| GCAGAGCAAUAUUACGUUAU | -2.65 ± 0.46 | -2.44 ± 0.44 |
| CGGUAGCAAUAUUACGCCCA | 0.153 ± 0.1 | 0.145 ± 0.17 |
| UUGCAGCAAUAUUACGUUUG | -2.14 ± 0.14 | -0.998 ± 0.14 |
| AAUCAGCAAUAUUACGCCCU | 0.314 ± 0.099 | 0.0253 ± 0.12 |
| CCACAGCAAUAUUACGAAAG | -1.55 ± 0.066 | -0.182 ± 0.082 |
| UCGGAGCAAUAUUACGUGUG | -3.08 ± 0.18 | -1.63 ± 0.1 |
| UGUAAGCAAUAUUACGAUCU | 0.361 ± 0.11 | 0.0759 ± 0.13 |
| CCUGAGCAAUAUUACGUGAU | -3.68 ± 0.24 | -3.54 ± 0.33 |
| GGCCAGCAAUAUUACGGAUC | -0.753 ± 0.092 | -0.347 ± 0.11 |
| CAGGAGCAAUAUUACGUUCC | -3.33 ± 0.23 | -2.04 ± 0.27 |
| UCCGAGCAAUAUUACGGCGG | -2.11 ± 0.14 | -2.2 ± 0.15 |
| UAUUAGCAAUAUUACGUACU | -0.305 ± 0.13 | -0.224 ± 0.16 |
| GAAGAGCAAUAUUACGGUGA | -2.47 ± 0.16 | -1.02 ± 0.096 |
| AUCCAGCAAUAUUACGCAGC | -1.43 ± 0.13 | -1.26 ± 0.2 |
| AUGGAGCAAUAUUACGCAUG | -2.5 ± 0.34 | -2.36 ± 0.25 |
| AAGGAGCAAUAUUACGGCUG | -2.21 ± 0.23 | -1.37 ± 0.27 |
